US20040253243

Tests used:
PDGF-AB (Homo sapiens) = PDGF-AB (Homo sapiens) (UniProt P04085+P01127); conditions: [PEG40K]-NH2-dCdAdGdGdCfUdAfCmG-PEG-dCdGTdAmGdAmGdCdAfUfCmA-PEG-TdGdATfCfCfUmG-3T (f 2'-F, m 2'-OMe, d deoxy; PEG spacers)
PDGF-BB (Homo sapiens) = PDGF-BB (Homo sapiens) (UniProt P01127); conditions: [PEG40K]-NH2-dCdAdGdGdCfUdAfCmG-PEG-dCdGTdAmGdAmGdCdAfUfCmA-PEG-TdGdATfCfCfUmG-3T (f 2'-F, m 2'-OMe, d deoxy; PEG spacers)
Chain of PDGF-BB (Homo sapiens) (P01127 82-190): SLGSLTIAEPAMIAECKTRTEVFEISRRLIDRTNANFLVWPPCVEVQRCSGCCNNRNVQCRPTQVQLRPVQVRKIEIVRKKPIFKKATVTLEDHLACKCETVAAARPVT

Chain of PDGF-AB (Homo sapiens) (P01127 82-190, chain 2 of 2, other chains not shown): as the sequence (P01127 82-190) above

CAGGCUACGCGTAGAGCAUCATGATCCUG [ARC127]
Kd (PDGF-AB (Homo sapiens)): 0.1 nM | Kd (PDGF-BB (Homo sapiens)): 0.1 nM
